Results published in patent US20230027639A1.

Columns and labels:
[1] = target: anti-CD19 CAR on CD19 CAR-T cells (the extracellular binding domain of the CAR was FMC63scfv); experiment: flow cytometry on CD19 CAR-T cells, Biotinylated Human CD19 Fc Tag detected with PE anti-Biotin; percent CAR-positive cells, replicate 2
[2] = target: anti-CD19 CAR on CD19 CAR-T cells (the extracellular binding domain of the CAR was FMC63scfv); experiment: flow cytometry on CD19 CAR-T cells, Biotinylated Human CD19 Fc Tag detected with PE anti-Biotin; percent CAR-positive cells, replicate 3
[3] = target: anti-CD19 CAR on CD19 CAR-T cells (the extracellular binding domain of the CAR was FMC63scfv); experiment: flow cytometry on CD19 CAR-T cells; mean ± SD of three parallel experiments
[4] = target: anti-CD19 CAR on CD19 CAR-T cells (the extracellular binding domain of the CAR was FMC63scfv); experiment: flow cytometry on CD19 CAR-T cells, Biotinylated Human CD19 Fc Tag detected with PE anti-Biotin; percent CAR-positive cells, replicate 1
[5] = target: anti-CD19 CAR on CD19 CAR-T cells (the extracellular binding domain of the CAR was FMC63scfv); experiment: cell-based or functional assay
[6] = target: anti-CD19 CAR on CD19 CAR-T cells (the extracellular binding domain of the CAR was FMC63scfv); experiment: flow cytometry on CD19 CAR-T cells, biotin-labelled antibody detected with PE anti-Biotin; percent CAR-positive cells, replicate 1
[7] = target: anti-CD19 CAR on CD19 CAR-T cells (the extracellular binding domain of the CAR was FMC63scfv); experiment: flow cytometry on CD19 CAR-T cells, biotin-labelled antibody detected with PE anti-Biotin; percent CAR-positive cells, replicate 2
[8] = target: anti-CD19 CAR on CD19 CAR-T cells (the extracellular binding domain of the CAR was FMC63scfv); experiment: flow cytometry on CD19 CAR-T cells, biotin-labelled antibody detected with PE anti-Biotin; percent CAR-positive cells, replicate 3

Molecule | CAR % [1] | CAR % [2] | CAR % (mean of three measurements) [3] | CAR % [4] | killing rate of CD19+K562 cells by CAR-T cells (LDH release), effector:target 1:1, mAb 5 µg/ml (16.0% without mAb) [5] | killing rate of CD19+K562 cells by CAR-T cells (LDH release), effector:target 1:1, mAb 25 µg/ml (16.0% without mAb) [5] | killing rate of CD19+K562 cells by CAR-T cells (LDH release), effector:target 5:1, mAb 5 µg/ml (51.5% without mAb) [5] | killing rate of CD19+K562 cells by CAR-T cells (LDH release), effector:target 5:1, mAb 25 µg/ml (51.5% without mAb) [5] | CAR % [6] | CAR % [7] | CAR % [8]
Biotinylated Human CD19, Fc Tag (ACROBiosystems, model CD19-H8259) (from UniProt P15391 20-291) (Fc fusion) | 12.3% | 20.1% | 14.2% | 10.3% |  |  |  |  |  |  | 
monoclonal antibody 3984-mab001-H (scFv) scFv: EIQLQQSGPELVKPGASVKVSCKASGYSFTDYTMYWVKQSHGKSLEWIGYIDPYNGGTNYSQRFKGKATLTVDKSSSTAFMHLNSLPSEDSAVYYCANTYDNYEFAYWGQGTLVTVSAGGGGSGGGGSGGGGSDIQMTQTTSSLSASLGDRVTISCRASQDISNYLNWYQQKPDGTVKLLIYYTSRLRSGVPSRFSGSGSGADYSLTISNLEQEDIATYFCQQGDTLPYTFGGGTKLEIN |  |  |  |  | 16.1% | 6.5% | 39.1% | 32.1% |  |  | 
biotin-labeled monoclonal antibody Bio-3984-mab001-H (scFv, biotin label (Sulfo-NHS-Biotin); labelled residues not stated) scFv: EIQLQQSGPELVKPGASVKVSCKASGYSFTDYTMYWVKQSHGKSLEWIGYIDPYNGGTNYSQRFKGKATLTVDKSSSTAFMHLNSLPSEDSAVYYCANTYDNYEFAYWGQGTLVTVSAGGGGSGGGGSGGGGSDIQMTQTTSSLSASLGDRVTISCRASQDISNYLNWYQQKPDGTVKLLIYYTSRLRSGVPSRFSGSGSGADYSLTISNLEQEDIATYFCQQGDTLPYTFGGGTKLEIN |  |  | 47.9% |  |  |  |  |  | 47.9% | 48.5% | 47.2%
